Measurements from publication PMC8360651.

Test system: VHH 9E (humanized single-domain antibody) (synthetic humanized VHH library NaLi-H1)
Experiment: ELISA
Details: ELISA: biotinylated DNA on avidin plates, 2 h binding, PBS/PBST washes (competition mix at RT). EMSA: PBS, 10% glycerol, RT 2 h, 8% native PAGE in TAE at 4 C. …

AAAATACATTTATATATATCCTAGTCCGACCGCAGGATCCTATAA / TTATAGGATCCTGCGGTCGGACTAGGATATATATAAATGTA [41-mer dsDNA target (BIOTIN-R-CELL + O3-CELL)]
binding signal (pH 5): 82%
K half (serial dilutions of VHH on immobilized dsDNA, relative binding affinity): 200 nM
